In patent publication US20260286413A1, “HYALURONAN SYNTHESIS, SECRETION AND LENGTH CONTROL” (UNIVERSITY OF VIRGINIA, priority 2023, published 2026):
Where a chain is given by its changes, count along the chain named. In names and notes the source's numbering stands.

T1: X1HAS1 (Xenopus laevis, UniProt P13563)
T1 construct: dodeca-histidine (His12) (N); made in house; host or cells: Spodoptera frugiperda Sf9 cells (baculovirus)
T1 sequence (P13563 1-588): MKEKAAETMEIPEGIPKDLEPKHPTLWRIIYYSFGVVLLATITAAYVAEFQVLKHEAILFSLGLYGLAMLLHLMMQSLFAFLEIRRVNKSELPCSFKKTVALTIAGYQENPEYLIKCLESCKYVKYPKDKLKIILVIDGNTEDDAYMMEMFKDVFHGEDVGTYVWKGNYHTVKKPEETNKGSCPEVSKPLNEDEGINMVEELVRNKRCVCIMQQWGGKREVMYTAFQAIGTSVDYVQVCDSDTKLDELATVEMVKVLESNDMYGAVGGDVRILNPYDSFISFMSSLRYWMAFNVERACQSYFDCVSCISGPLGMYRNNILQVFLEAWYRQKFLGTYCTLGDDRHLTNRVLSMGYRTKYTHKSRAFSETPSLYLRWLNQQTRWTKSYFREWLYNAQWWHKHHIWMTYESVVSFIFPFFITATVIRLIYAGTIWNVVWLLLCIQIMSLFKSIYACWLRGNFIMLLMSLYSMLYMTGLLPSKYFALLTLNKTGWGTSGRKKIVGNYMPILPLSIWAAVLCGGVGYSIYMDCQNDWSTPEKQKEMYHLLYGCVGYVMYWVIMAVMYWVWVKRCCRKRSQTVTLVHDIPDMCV

B1: W491A: X1HAS1 mutant, Trp491 of WGTSGRK/R motif replaced with Ala (protein, UniProt P13563 1-588, looked up, variant W491A)
Hyaluronan synthase 1: T1 sequence (P13563 1-588) with W491A
B2: R381K: X1HAS1 mutant, Arg381 replaced with Lys (protein, UniProt P13563 1-588, looked up, variant R381K)
Hyaluronan synthase 1: T1 sequence (P13563 1-588) with R381K
B3: K218A: X1HAS1 mutant, Lys218 replaced with Ala (protein, UniProt P13563 1-588, looked up, variant K218A)
Hyaluronan synthase 1: T1 sequence (P13563 1-588) with K218A
B4: W491F: X1HAS1 mutant, Trp491 replaced with Phe (protein, UniProt P13563 1-588, looked up, variant W491F)
Hyaluronan synthase 1: T1 sequence (P13563 1-588) with W491F
B5: R496A: X1HAS1 mutant, Arg496 replaced with Ala (protein, UniProt P13563 1-588, looked up, variant R496A)
Hyaluronan synthase 1: T1 sequence (P13563 1-588) with R496A
B6: R381A: X1HAS1 mutant, Arg381 of QxxRW motif replaced with Ala (protein, UniProt P13563 1-588, looked up, variant R381A)
Hyaluronan synthase 1: T1 sequence (P13563 1-588) with R381A
B7: K218R: X1HAS1 mutant, Lys218 replaced with Arg (protein, UniProt P13563 1-588, looked up, variant K218R)
Hyaluronan synthase 1: T1 sequence (P13563 1-588) with K218R
B8: H72F: X1HAS1 mutant, His72 replaced with Phe (protein, UniProt P13563 1-588, looked up, variant H72F)
Hyaluronan synthase 1: T1 sequence (P13563 1-588) with H72F
B9: H72A: X1HAS1 mutant, His72 replaced with Ala (protein, UniProt P13563 1-588, looked up, variant H72A)
Hyaluronan synthase 1: T1 sequence (P13563 1-588) with H72A
B10: T493S: X1HAS1 mutant, Thr493 replaced with Ser (protein, UniProt P13563 1-588, looked up, variant T493S)
Hyaluronan synthase 1: T1 sequence (P13563 1-588) with T493S
B11: K448R: X1HAS1 mutant, Lys448 replaced with Arg (protein, UniProt P13563 1-588, looked up, variant K448R)
Hyaluronan synthase 1: T1 sequence (P13563 1-588) with K448R
B12: K448A: X1HAS1 mutant, Lys448 replaced with Ala (protein, UniProt P13563 1-588, looked up, variant K448A)
Hyaluronan synthase 1: T1 sequence (P13563 1-588) with K448A
B13: R287A: X1HAS1 mutant, Arg287 replaced with Ala (protein, UniProt P13563 1-588, looked up, variant R287A)
Hyaluronan synthase 1: T1 sequence (P13563 1-588) with R287A
B14: T493A: X1HAS1 mutant, Thr493 replaced with Ala (protein, UniProt P13563 1-588, looked up, variant T493A)
Hyaluronan synthase 1: T1 sequence (P13563 1-588) with T493A
B15: R296A: X1HAS1 mutant, Arg296 replaced with Ala (protein, UniProt P13563 1-588, looked up, variant R296A)
Hyaluronan synthase 1: T1 sequence (P13563 1-588) with R296A

The molecules below were run against T1, X1HAS1 (assay: Substrate turnover rate quantification (UDP release, enzyme-coupled assay)). Settings: one substrate titrated at saturating concentration of the other; real-time quantification of released UDP; read-out: Michaelis-Menten constant.
Format: biochemical
Experimental: (§1) UDP release during HA synthesis was quantified using an enzyme-coupled assay as previously described (10, 13). Depletion of NADH was monitored at 340 nm every 60 s for 3 hours at 37° C. in a SpectraMax instrument. The raw data was processed in MS Excel and a linear phase of each reaction was determined. The rate of NADH depletion was converted to pmoles of UDP released using a UDP standardized plot (FIG. S1C) for Michaelis-Menten constant determination using GraphPad Prism. For substrate turnover rate quantification of X1HAS1 mutants, pmoles of released UDP were converted to the number of corresponding substrate turnovers per molecule of X1HAS1, per minute. Data is presented relative to wild type activity. All experiments were performed in four to eight replicates and error bars represent standard deviation from the means.
(§2) HAS transfers the UDP-activated glycosyl unit (the donor sugar) to the non-reducing end of the nascent HA polymer (the acceptor sugar). This reaction generates UDP and elongated HA as reaction products (FIG. 1A). Catalytic activity can be assessed by monitoring the release of UDP in an enzyme-coupled reaction, as previously described (10, 13), or quantifying HA, either radiometrically or by dye staining following electrophoresis.

For O=C(O)[C@H]1O[C@H](OP(=O)(O)OP(=O)(O)OC[C@H]2O[C@@H](n3ccc(=O)[nH]c3=O)[C@H](O)[C@@H]2O)[C@H](O)[C@@H](O)[C@@H]1O [UDP-GlcA, reference compound], which Km is on record?
Its Km is ~370 µM.

How did the Km turn out when CC(=O)N[C@H]1[C@@H](OP(=O)(O)OP(=O)(O)OC[C@H]2O[C@@H](n3ccc(=O)[nH]c3=O)[C@H](O)[C@@H]2O)O[C@H](CO)[C@@H](O)[C@@H]1O [UDP-GlcNAc, reference compound] was run?
The Km was ~470 µM.

Each molecule was assayed on X1HAS1 in the same assay as above. Settings: UDP release.
Format: biochemical, Xenopus laevis
Experimental: as §1, §2

For B1, which “substrate turnover / catalytic activity compared to WT” value is on record?
Its value is “abolished”.

How did the “substrate turnover / catalytic activity compared to WT” value turn out when B2 was run?
The value was “cannot be replaced”.

How did the “substrate turnover / catalytic activity compared to WT” value turn out when B3 was run?
The value was “abolishes”.

How did the “substrate turnover / catalytic activity compared to WT” value turn out when B4 was run?
The value was “reduced”.

With B5 as the molecule, how does the “substrate turnover / catalytic activity compared to WT” value read?
The value was “abolishes catalytic activity”.

With B6 as the molecule, how does the “substrate turnover / catalytic activity compared to WT” value read?
Its value is “cannot be replaced”.

B7 was tested. Which “substrate turnover / catalytic activity compared to WT” value did it give?
The value was “abolishes”.

Same assay, conditions: UDP release, normalized to WT

B8 was tested. Which “substrate turnover rate / catalytic rate relative to WT” value did it give?
The value was “about 10%”.

For B9, which “substrate turnover rate / catalytic rate relative to WT” value is on record?
The value was 50-75%.

How did the “substrate turnover rate / catalytic rate relative to WT” value turn out when B10 was run?
Its value is 20-25%.

For B11, which “substrate turnover rate / catalytic rate relative to WT” value is on record?
The value was 50-75%.

B12 was tested. Which “substrate turnover rate / catalytic rate relative to WT” value did it give?
The value was 50-75%.

With B13 as the molecule, how does the “substrate turnover rate / catalytic rate relative to WT” value read?
The value was “about 15%”.

Which “substrate turnover rate / catalytic rate relative to WT” value does the source give for B14 here?
Its value is 20-25%.

How did the “substrate turnover rate / catalytic rate relative to WT” value turn out when B15 was run?
The value was ~30%.

The molecules below were run on X1HAS1 (assay: Electrophoretic HA size determination (agarose gel, Stains-all) of in vitro synthesized HA). Settings: not given.
Format: biochemical, Xenopus laevis
Experimental: To assess the size of HA synthesized by X1HAS1, similar reaction conditions were applied to the ones described above. […] […] Controls were carried out by digesting the synthesized polymers with hyaluronidase. Synthesis reactions were mixed with SDS-PAGE loading dye and applied to a 1% agarose gel (Ultra-pure agarose, Invitrogen) casted in an Owl B2 system (ThermoFisher). […] After the run, the gel was equilibrated in 50% ethanol for 1.5 h and subjected to staining in 0.05% Stains-all (Sigma) in 50% ethanol overnight under light-protection. Post-staining background was reduced by soaking the gel in 20% ethanol for 3-7 days in the dark. The migration of the synthesized HA species was compared to HA standards from Streptococcus equi (Sigma), as well as enzymatically generated ladders: HA LoLadder and HA HiLadder (Hyalose).

With B1 as the molecule, how does the “HA product versus WT, short reaction” value read?
The value was “abolishes HA biosynthesis”.

How did the “HA product versus WT, short reaction” value turn out when B8 was run?
Its value is “reduced length”.

B9 was tested. Which “HA product versus WT, short reaction” value did it give?
Its value is “reduced length”.

Which “HA product versus WT, short reaction” value does the source give for B10 here?
Its value is “exceeding the size of the WT product”.

For B11, which “HA product versus WT, short reaction” value is on record?
Its value is “reduced length”.

Which “HA product versus WT, short reaction” value does the source give for B12 here?
The value was “reduced length”.

B14 was tested. Which “HA product versus WT, short reaction” value did it give?
Its value is “exceeding the size of the WT product”.

B4 was tested. Which “HA product versus WT, short reaction” value did it give?
Its value is “lower molecular weight product”.

Same assay, conditions: 8 h synthesis reaction

Which “HA product versus WT, long reaction” value does the source give for B8 here?
Its value is “equivalent to or exceeding the HA length obtained from the WT enzyme”.

For B11, which “HA product versus WT, long reaction” value is on record?
The value was “equivalent to or exceeding the HA length obtained from the WT enzyme”.

Same assay, conditions: from differences in electrophoretic mobility

How did the “HA size difference versus WT product” value turn out when B10 was run?
The value was “up to 0.5 MDa”.

With B11 as the molecule, how does the “HA size difference versus WT product” value read?
Its value is “up to 0.5 MDa”.

Same assay, conditions: short and long reactions (1 h or 8 h), not distinguished

Which “HA product versus WT” value does the source give for B3 here?
The value was “abolishes”.

How did the “HA product versus WT” value turn out when B13 was run?
Its value is “short HA oligosaccharide species”.

Which “HA product versus WT” value does the source give for B15 here?
The value was “short HA oligosaccharide species”.

How did the “HA product versus WT” value turn out when B7 was run?
The value was “abolishes”.
